Consider 69 sequences from the domain aggregation screens of Martell et al. (2025).
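Also: 20 min heating vs room temperature control held 20 min.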

The nature of the data set: soluble fraction after stress (log2 fold change); higher = more stays soluble; pooled small domains, quantitative proteomics. The conditions noted are these: stress: 75 degC.
As for “HMDAQLRVPDLTPYNYSELKENTSLYEGFTIEVVEERSTGDYAAGTVLDQDPKADTLIQDGDSTVIKLVIA”, the “soluble fraction (log2)” value was 0.151.
To “HMDASFTYSLETHPAGVLVRVDGLEYETPFSILLPQGVHRLEVAGEERFFYLSETTHQFLEID” belongs -2.9; to “HMDATGDPIADRILQALQLGELTRTQVNNVFQRHLAAARISQALNFLRSLKRADMRMEETAGRSGEVWFAI”, -0.454.
To “HMDAVKKKVQSTNTLLDVLKQMLPQTSSNTLRKMLTNQRITVDGETIHRAKHTVEKDQTVEIHPKP” belongs 0.215.
The value for “HMDAVSYTQFMQDAKAGRIKKVIVHQSGILDVTTTEGRRFNLTSPGDLWMVGDLVKDGVDVVGAP” was -0.234; that for “HMDAVTYAKGSSGETVREIQQLLLDWGYYSGEVDGIFGSRTEDAVEYFQRKNGLTVDGKVGPATLEALGIS” was -0.0808; that for “HMDAYMIGHNIAKWRKEKGMTQDQLAEHLSVSGQAVSKWENGASLPDIAILPKLAEIFDVTMDQLFSR” was 0.0534.
For “HMDDAIAEKTGGAVSSVNQRQAILDHIREAYGIELESLRSTDIERYLDDPEIPEPVKDILRDRLRGAK”, the “soluble fraction (log2)” value stood at 0.204.
Take “HMDDDAELLLKKLSAAGGELPFHDRSEPAEIEAAFGLSKSAFKRALGKLLKAGKVVKTQQGIQLK”: the “soluble fraction (log2)” value came to 0.162.
As for “HMDDDIKNALDVLPEQYRMTVYYADVEGLAYKEIGAIMNTPIGTVMSRIHRGRSQLRVLLAAVAADR”, the “soluble fraction (log2)” value was 0.316.
Consider “HMDDFITLVIHTPAHAQNLRNILESHGMEVRLEDFVSFKSPVAVAQRVKIRPKDLPLALKIIESGE”, for which the “soluble fraction (log2)” value was 0.19.
The value for “HMDDFVEIDGKKYEIDMSFDNILRLFDLLKDKSLNDVTKIETGLIMLIDDSLDDYDTEEKADIFVQIF” was -0.411; that for “HMDDGALQIRLGPQALQQRLDKLGYSLNKEDLDLVYQYFLHSADSKGAVYDQELRELMGEAGVE” was -0.102.
As to “HMDDIHTFVYETETPFDPQKLDRYIGSLTAVYGQDMLRYKGILYFAGVDRRVVFQGVHMLAV”, the “soluble fraction (log2)” value was -0.0939.
To “HMDDILAYEIEDKEDLENLSLGKSIGINLNKLIKPTLNSFDNSLLFLSKKGNIISYGKLNGDLFKPKKVL” belongs 0.346; to “HMDDINVSNSKNIVPNVTGHTGSKAIPVLENLGLDVQYSGFGKVTNQSIPAGTRFKKGETIYLMLE”, 0.03.
The value for “HMDDIVFPNPTKNQINVSIDGLKNIYNLSGKLLISTNDKIIDVSILKAGVYFINTNEQFYKFVK” was -1.41.
For the sequence “HMDDIVPHSTKNHIIKTFLSLMNSLDIITDKNKKSLNQNVHIIFNKFNFSKKEANLFIGVLNRIQKALK”, the “soluble fraction (log2)” value was determined as 0.602.
The value for “HMDDLFGNAIEMFNNQRYDMTYELLVQLLSETPNNEKAWQLLADTKFMLGDYDDALHIVGKAAK” was -1.05; that for “HMDDPWHNLANAIVAVAADDYRSALRNEDEGLLKSLELFFHSEWYRILTDVDADRLLGMLRRERS” was -1.71.
The value for “HMDDTPLNNVIKKIAALPENITLADKSAVLSAWEAYQALSVNLKAQVSNSELLIKAYETILQLEGEDQIK” was 0.437; that for “HMDDYRIEDMMTVVEEQVIRQKETNLSWFFKRAGSLNEIITIFLAALELIKVHRVYVKQEHNFDDIILRKE” was 0.305.
To “HMDEAAGVLTQLRAFIAASNLSPGLRLPPERELAEQLGVTRAELRKALAVLEAEGLLWRQVGKGTFYGARP” belongs -1.35; to “HMDEAEELYQAVQALKPKYREVILLHYYQGLRVGEIAAILRAPQSTVSIRLRRARQMLNRMLG”, -0.701; to “HMDEALLRATLLDVLVKHHPKIGDKLDVVFALAKAWVSSGSDDDFEVLEKYMERLKPDEALMLASGFSNML”, -0.886.
With “HMDEDTWKLYKRAYKKYYARYMKGNMSEAAFKAWGEQAAADRDAAIEQLRATTDAALSASIIQQLKEKLNR”, the “soluble fraction (log2)” value was -0.995.
The value for “HMDEEDVLNELIRRLALTADDRLLLSLSYEDGLSSRKIATLLETSAATVQRRLAGLHHQLEQALRVMGLA” was -0.323; that for “HMDEEGDALDREYEDQIRLGDEAFDAEDWTSAQRAYTAALELRPDERYPKNRLRRLASLQEDV” was 0.245.
With “HMDEETVALQKAIHSLPPKQQAVFNMRYYDEMSFREIADANETTESSAKANYHFAKAKIIEQMKR”, the “soluble fraction (log2)” value stood at 0.113.
The value for “HMDEILHHPSYRAIYEYMLDHKHVKTKDIAALLNVKEPRARQLLKEMIDKHFIIALGSNRNREYELL” was -0.94; that for “HMDEKSGWLHLAPHEGALRAALYAEHAVQEERTAPDGSQWLRLVLREKHYHQIQSKYNRRLTLHTQPDPS” was -2.58.
To “HMDENDPYEILEIDRLASDDQVKAKYRALIRENHPDVLMAKGVPQEFIDLANRKMAVINAAYDRIEKEREF” belongs 0.122; to “HMDEPGAGYKWREDVLLRVMASHGIEESLRDDFVRHAVGFDNDDNMYLKKVEIENAAAAWVAN”, -0.359; to “HMDETELLLQKAIATLPDKQRVVFNLKYFDEMKYEEMSELLETSVGALKASYHLAVKKIEQFFHDA”, -0.555.
To “HMDETYRRQLEDLAREHGAEYLHGILREVDPASAEAIHANNIKRVIRALEFYHLSGKKISEHNETERQ” belongs -0.12; to “HMDEVHYLADKERGTTWEEILIHADRDIKFLSLSATINNKNEFLEWLVSLRGTTSLIHSSTRPIPLEI”, 0.231; to “HMDEVLDQFVRGQIYGYIRANPGDIYSSIRDNLGLKNGVTTYHLDVLAREEYVYSEIDGTNRRFYPSGWEE”, -2.77.
On to “HMDEVVVVERGGVQITMSEIDAKIMELPVDVRPSYLDSPERLQNFVSNLLLEKQAAQLKSQY”, for which the “soluble fraction (log2)” value is -0.142.
To “HMDEWDPAILYVGLDYEDAAQIATRLATSGVPYRLSPDGTMITVPDDQVNNMRLTLAGEGFPH” belongs -0.0325; to “HMDEYFNPETVVHYLRELFDTYRENGGNPFEWFHSTFESVNLNPQNYRKDLITTIEKALIEWIEIFEKQ”, -0.697.
Regarding “HMDFDPDVPSREDILQAFRDSKPPLTVNALISEFGLSRDASIVGLERRMGAMQRDGQLEQTPSGWQLSV”, the “soluble fraction (log2)” value is -0.164.
In the case of “HMDFFVLVGAYKTPDEAETIRAKIAFSGLDSSVSHGNDGRYRVRIGPFHSEGDARKAQSTLRANDIPGQII”, the “soluble fraction (log2)” value was -1.01.
To “HMDFGMPEELQKKLDKMPALKAAFEALTPGRQRGYIFYFSQPKQSKTRELRIEKSIEQIMNGKGLND” belongs -0.414; to “HMDFIEYIISEESKGLRADQAISMENDKFSRSLIQKWIKKGRVLVNGRKIKPKDIVNLNDKITINPEESIN”, -0.36; to “HMDFITPYEIEQGQYEGAELYEDGKFEEAFSLSSIAAQRGMKTAQYLLGIMFLKGEYVDQSLAIGMAW”, -0.52.
The value for “HMDFPYISGIEIAAIKNREFIRIETDKAQEIAIALDKSGIPFSARFSDAEMVLTYDGSYKEQVEDIIAKA” was -0.705.
The value for “HMDFSERLARAMSLAGYTQGRLAKEVGMAQSSVNKLLNGANGSRKTVEIASVLGVRPEWLSTGAGEML” was -0.546; that for “HMDFSSRLKDERKRLKLSQAQLGEAGGVSKDAQLNYENGSRSPSASYLELIAREGVDVQFLLTGKRS” was 0.155; that for “HMDFSYTVGDIDEPIDSRGNSVIMLRKLAWGSNAEKLEIRRWIIDIDSERANKGVTFLTEEGPHNLVRV” was 0.272.
For the sequence “HMDFTISDADFHRLVQFIQQNYGVALSKKRQLISSRLSHSLRELGYKDFRTFLEHLFSTRDPADLELVLNK”, the “soluble fraction (log2)” value was -1.59.
To “HMDFYVILGVDRAASLSDVKRAYRRLARKHHPDINPGDPESDAFFMRVTEAYETLVDPDRRQEYDEHG” belongs -0.75.
The value for “HMDGEFINLKNRAGTEIEARILNYQNGQVKLERKDGVTFVVSISMFDAKSVIAINHKIAEIIDT” was -2.28.
Consider “HMDGIDALEPLMRRVFEALPQRRSMTIERAAVAAGLDEESVKIALVRLQLEGYVANDERGWHRSKSPH”, for which the “soluble fraction (log2)” value is -2.48.
Consider “HMDGIGLRVRMIREGVGLTQKQLAEHLGMQRTALVQVEAGSRKLSASELIGVARFFNITVEQFLDPEK”, for which the “soluble fraction (log2)” value was -3.5.
To “HMDGIPVPDVKGTVEAEATATLKNSGFEVTKTQDFSDTVEAGKVISQNPAGGSSAASGSSVTLVISQGPN” belongs -0.0786; to “HMDGISANAVKALIESLIAGEDKRKPLSDQAMSDRLALQGIVLARRTVAKYREELNFPPAHQRKQK”, -1.41.
The value for “HMDGLPYPEAAEEPIAQVARNLGMDATRVSIALQEAKLIFRNLDETLAEIAANNGTTPQVVYDAIRHLEPP” was -0.248.
Take “HMDGLTEQQADDILAFISIKGTNAEVLAALENYAGRNETFDTGLSELKVVASNLAAFGMPEENFVVDL”: the “soluble fraction (log2)” value amounted to 0.283.
The value for “HMDGPGDRLLIAIQENSMTQKKFAQLIGMSPNGLNSIIKGKKRLSRVLAIATERLTGVRADWILQNEQPK” was -0.0913.
Take “HMDGQPLSERQQEILRWVAEGLSNREIGERLNITPNTVRDHLSEVMRRLEVSNRTSAVSTAFHLGLLP”: the “soluble fraction (log2)” value was -0.0654.
The value for “HMDGRIRFRHAALHDPDVAARLHDYLTTSLPGVRSARVNSQTGSLLLEYDPEVLDRSTLLDLAARAESLL” was -0.493; that for “HMDGRSLSHATLEEIRIRAVQRVEAGESPEVVVKALGFSRPRIYEWLALYREGGLEALRAKPV” was -1.1.
“HMDGSEYAGTVRLGDGTLQPVPRFETSNSETPKYLYLVMDVTHDPPVYILEHESAELKSVLGGLVLIGSYS”: the “soluble fraction (log2)” value worked out at 0.0157.
To “HMDGTVRGKTTFQELLDWGVPQERIEAVLGGPIPAPGVVIKDYVTAQGKEFSAVRDALQAEVDAVLK” belongs 0.144; to “HMDGVLLDHLDGFVTTRRGVEAWLEQPTSFNKPSILLVAADGESTRRAIPSIAFGYDFASRHDIPAYDAG”, -0.44.
To “HMDGVPPAGSRIRLTVSTQVGDKEFEGTLVPPAGVDLLTLKLANGYNLSHSIADVREVVLIEEGLQGEEP” belongs -0.191; to “HMDGVSLLFKLMETLPEQQKTILHLRDVEQLEFAEIAKITNTSQANVRVALSRARKKIKDLLLKQY”, -2.52.
Turning to “HMDGVYLKSLKQTEQHIHWSGYAQSNAWVSTLMRNLDASPWFESPLLIEIKAATINNSRSNEFDLNVRL”, the “soluble fraction (log2)” value stood at 0.0974.
The value for “HMDGYTVYTNWGSDTNVARSDQQIQSQIPQLSGATIVGVWTKPIATGGTSYKIRYRTNSGAFTEIDVDQ” was -0.256.
